The target of assay [1] is T1, pyro-Glu(3-40/42) fibrils (N-terminal pyroglutamate (pyro-Glu at Aβ position 3)).
T1 construct: Fibrillar aggregate of pyro-Glu(3-40/42)-Aβ
Put plainly: SPR, fibrils.

Assay [2] addresses T2, wild-type Aβ(1-40).
T2 construct: also called WT Aβ(1-40); Aβ (1-40) monomers
Put plainly: SPR (Table 1).

The target in assay [3] is T3, Aβ (1-40) fibrils.
T3 construct: Fibrillar aggregate of wild-type Aβ(1-40)
Nature of the assay: SPR / Europium ELISA. On the technique in general: An ELISA detects its analyte on a solid surface through an enzyme-linked reagent.

In assay [4] the target is T4, pyro-Glu(3-40/42)-Aβ (N-terminal pyroglutamate (pyro-Glu at Aβ position 3)).
T4 construct: also called pyro-Glu(3-40/42) monomers; N-terminally modified pyro-glutamate Aβ
T4 sequence (peptide, as listed by the source): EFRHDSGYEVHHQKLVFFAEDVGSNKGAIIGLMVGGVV
Nature of the assay: SPR; restated as (4.2 nM) in the line below. A general note: Surface plasmon resonance follows binding to a sensor surface in real time, without labels.

Assay [5] has as its target T4, pyro-Glu(3-40/42)-Aβ. Nature of the assay: SPR or EU-ELISA (Table 1). Column 5 has no head of its own and is read as under the head 'KD for pyro-Glu (3-40/42)' printed at c4. Restated as (37.3 nM) in the line below. Differs from c4 (4.17E-9); second, unheaded column (c5) beside c4 under 'KD for pyro-Glu (3-40/42)'; probably the other peptide length (3-40 or 3-42), which the patent does not state.

The text below walks through data of patent US20120045392A1 (CASE WESTERN RESERVE UNIVERSITY, published 2012).

T2 sequence (peptide, as listed by the source): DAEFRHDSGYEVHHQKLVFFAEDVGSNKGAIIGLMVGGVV

B1: PGA 5 (antibody, IgG1, V domains shown)
VH: EVKLVESGGGLVQPGGSLRLSCVTSGFTFTENYMSWVRQPPGKALEWLGFIRNKANGYTTEYSASVKGRFTISRDNSQSILYLQMNTLRAEDSATYYCARDWDYGSSHAMDYWGQGTSVTVSS
VL: DILLTQSPAILSVSPGERVSFSCRASQNIGTSMHWFQQRTNGSPRLLIKYASESVSGIPSRFSGSGSGTDFTLSINSVESGDIADYYCQQSNSWPFTFGSGTKLEI
notes: also called 1F2 2E3; PGAS
Consider B1, for which the Kd amounted to 4.53 nM in assay [1], 4.17 nM in assay [4] and 37.3 nM in assay [5]. In addition, the binding result in assay [2] and in assay [3] was “no binding” each time.

The Kd is the concentration at which binding is half-saturated. Read a high Kd as lower affinity.
